What was measured:
Assay in all cases: cell-based or functional assay
[1] = biological target: HIV-1 MGRM-D-016 Env (HIV-1)
[2] = biological target: HIV-1 CAAN.A2 (Acute) Env on pseudovirus (HIV-1)
HIV-1 APV-17 Env (HIV-1) = biological target: HIV-1 APV-17 Env (HIV-1)
[3] = biological target: HIV-1 MGRM-D-028 Env (HIV-1)
[4] = biological target: HIV-1 MGRM-D-003 Env (HIV-1)
[5] = biological target: HIV-1 MGRM-AE-006 Env (HIV-1)
[6] = biological target: HIV-1 93TH305 Env on pseudovirus (HIV-1)
[7] = biological target: HIV-1 MGRM-AG-008 Env (HIV-1)
[8] = biological target: HIV-1 92BR020 Env (HIV-1)
[9] = biological target: HIV-1 MGRM-AG-001 Env (HIV-1)
[10] = biological target: HIV-1 MGRM-AG-003 Env (HIV-1)
[11] = biological target: HIV-1 MGRM-D-005 Env (HIV-1)
HIV-1 JRCSF Env (HIV-1) = HIV-1 JRCSF Env (HIV-1) (UniProt P20871)
[12] = biological target: HIV-1 92UG001 Env (HIV-1)
[13] = biological target: HIV-1 MGRM-C-013 Env on pseudovirus (HIV-1)
[14] = biological target: HIV-1 MGRM-Chronic-B-008 Env on pseudovirus (HIV-1)
[15] = biological target: HIV-1 MGRM-D-022 Env (HIV-1)
[16] = biological target: HIV-1 MGRM-AE-002 Env (HIV-1)
[17] = biological target: HIV-1 MGRM-Chronic-B-003 Env on pseudovirus (HIV-1)
[18] = biological target: HIV-1 LAVI_C22 Env on pseudovirus (HIV-1)
[19] = biological target: HIV-1 MGRM-AE-003 Env (HIV-1)
[20] = biological target: HIV-1 MGRM-Chronic-B-001 Env on pseudovirus (HIV-1)
[21] = biological target: HIV-1 MGRM-F1-016 Env (HIV-1)
[22] = biological target: HIV-1 92BR020 Env on pseudovirus (HIV-1)
[23] = biological target: HIV-1 MGRM-AG-006 Env (HIV-1)
[24] = biological target: HIV-1 MGRM-Chronic-B-023 Env on pseudovirus (HIV-1)
[25] = biological target: HIV-1 MGRM-Chronic-B-011 Env on pseudovirus (HIV-1)
[26] = biological target: HIV-1 MGRM-AE-001 Env (HIV-1)
[27] = biological target: HIV-1 MGRM-D-021 Env (HIV-1)
[28] = biological target: HIV-1 MGRM-G-028 Env (HIV-1)
[29] = biological target: HIV-1 MGRM-D-002 Env (HIV-1)
[30] = biological target: HIV-1 MGRM-D-018 Env (HIV-1)
[31] = biological target: HIV-1 MGRM-G-006 Env (HIV-1)
[32] = biological target: HIV-1 THR0.18 (Acute) Env on pseudovirus (HIV-1)
[33] = biological target: HIV-1 MGRM-D-013 Env (HIV-1)
[34] = biological target: HIV-1 MGRM-Chronic-B-002 Env on pseudovirus (HIV-1)
[35] = biological target: HIV-1 94UG114 Env (HIV-1)
[36] = biological target: HIV-1 MGRM-G-019 Env (HIV-1)
[37] = biological target: HIV-1 VLGCB3 Env on pseudovirus (HIV-1)
[38] = biological target: HIV-1 APV_6 Env on pseudovirus (HIV-1)
[39] = biological target: HIV-1 MGRM-C-014 Env on pseudovirus (HIV-1)
[40] = biological target: HIV-1 APV_17 Env on pseudovirus (HIV-1)
[41] = biological target: HIV-1 MGRM-G-025 Env (HIV-1)
[42] = biological target: HIV-1 MGRM-Chronic-B-017 Env on pseudovirus (HIV-1)
[43] = biological target: HIV-1 MGRM-G-027 Env (HIV-1)
[44] = biological target: HIV-1 92UG046 Env (HIV-1)
[45] = biological target: HIV-1 MGRM-AG-013 Env (HIV-1)
[46] = biological target: HIV-1 MGRM-G-024 Env (HIV-1)
[47] = biological target: HIV-1 MGRM-A-010 Env (HIV-1)
[48] = biological target: HIV-1 92RW020 Env (HIV-1)
[49] = biological target: HIV-1 MGRM-A-013 Env (HIV-1)
[50] = biological target: HIV-1 MGRM-A-007 Env (HIV-1)

In the case of 2F5 (antibody), the IC50 (µg/ml), pseudovirus neutralization [1] is reported as 9.85 µg/mL, the IC50 [2] is reported as 23.1 µg/mL and the neutralization IC50 (HIV-1 APV-17 Env (HIV-1)) is reported as 2 µg/mL. For the same substance, the IC50 (µg/ml), pseudovirus neutralization [3] was over 50 µg/mL, the IC50 (µg/ml), pseudovirus neutralization [4] was over 50 µg/mL and the IC50 (µg/ml), pseudovirus neutralization [5] was 0.18 µg/mL. It also gave an IC50 [6] of 7.61 µg/mL, an IC50 (µg/ml), pseudovirus neutralization [7] of 0.54 µg/mL and a neutralization IC50 [8] of over 50 µg/mL. It also gave a neutralization IC90 [8] of over 50 µg/mL, an IC50 (µg/ml), pseudovirus neutralization [9] of 0.75 µg/mL and an IC50 (µg/ml), pseudovirus neutralization [10] of 0.14 µg/mL. It also gave an IC50 (µg/ml), pseudovirus neutralization [11] of over 50 µg/mL, a neutralization IC50 (HIV-1 JRCSF Env (HIV-1)) of 3.36 µg/mL and a neutralization IC90 (HIV-1 JRCSF Env (HIV-1)) of 25.3 µg/mL. For the same substance, the IC50 (µg/ml), pseudovirus neutralization [12] was 13 µg/mL, the IC50 [13] was 18.4 µg/mL and the IC50 [14] was over 50 µg/mL. The IC50 (µg/ml), pseudovirus neutralization [15] was 8.45 µg/mL, the IC50 (µg/ml), pseudovirus neutralization [16] was 0.31 µg/mL and the IC50 [17] was 1 µg/mL. The IC50 [18] was over 50 µg/mL, the IC50 (µg/ml), pseudovirus neutralization [19] was 0.24 µg/mL and the IC50 [20] was 0.55 µg/mL. It also gave an IC50 (pseudovirus neutralization) [21] of 21.5 µg/mL, an IC50 [22] of over 50 µg/mL and an IC50 (µg/ml), pseudovirus neutralization [23] of 0.85 µg/mL. The IC50 [24] was 0.1 µg/mL, the IC50 [25] was 0.81 µg/mL and the IC50 (µg/ml), pseudovirus neutralization [26] was 0.29 µg/mL. For the same substance, the IC50 (µg/ml), pseudovirus neutralization [27] was over 50 µg/mL, the IC50 (µg/ml), pseudovirus neutralization [28] was 2.24 µg/mL and the IC50 (µg/ml), pseudovirus neutralization [29] was 24.6 µg/mL. The IC50 (µg/ml), pseudovirus neutralization [30] was 4.05 µg/mL, the IC50 (µg/ml), pseudovirus neutralization [31] was 1.33 µg/mL and the IC50 [32] was over 50 µg/mL. It also gave an IC50 (µg/ml), pseudovirus neutralization [33] of 2.12 µg/mL, an IC50 [34] of 1.25 µg/mL and an IC50 (µg/ml), pseudovirus neutralization [35] of over 50 µg/mL. For the same substance, the IC50 (µg/ml), pseudovirus neutralization [36] was over 50 µg/mL, the IC50 [37] was over 50 µg/mL and the IC50 [38] was 0.25 µg/mL. The IC50 [39] was over 50 µg/mL, the IC50 [40] was 4.61 µg/mL and the IC50 (µg/ml), pseudovirus neutralization [41] was over 50 µg/mL. It also gave an IC50 [42] of over 50 µg/mL, an IC50 (µg/ml), pseudovirus neutralization [43] of 0.28 µg/mL and an IC50 (µg/ml), pseudovirus neutralization [44] of over 50 µg/mL. The IC50 (µg/ml), pseudovirus neutralization [45] was 1.79 µg/mL, the IC50 (µg/ml), pseudovirus neutralization [46] was 1.07 µg/mL and the neutralization IC50 [47] was 20.8 µg/mL. It also gave a neutralization IC50 [48] of 3.36 µg/mL, a neutralization IC50 [49] of 0.66 µg/mL and a neutralization IC50 [50] of 16.3 µg/mL.
